Read-outs that look alike come from different tables or passages of the source.

Assay [1] deals with recombinant human VEGF-A165 (human) (UniProt P15692).
Assay [2] concerns the target T1, human VEGF-B 167/189 (human) (UniProt P49765).
T1 sequence (looked up): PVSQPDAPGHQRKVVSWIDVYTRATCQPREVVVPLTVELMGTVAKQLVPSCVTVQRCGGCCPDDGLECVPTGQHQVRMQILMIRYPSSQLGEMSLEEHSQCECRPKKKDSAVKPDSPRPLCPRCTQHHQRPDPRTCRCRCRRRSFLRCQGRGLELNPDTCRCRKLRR
The experiment in a line: SPR Biacore; Fc fusion captured on anti-human IgG (Fc) antibody chip, VEGF-B167/189 as analyte, 1:1 model. In general terms: In SPR one partner is held on a chip, and binding of the other changes the refractive index at the surface.

The target in assay [3] is T2, human PlGF (human) (UniProt P49763).
T2 sequence (looked up): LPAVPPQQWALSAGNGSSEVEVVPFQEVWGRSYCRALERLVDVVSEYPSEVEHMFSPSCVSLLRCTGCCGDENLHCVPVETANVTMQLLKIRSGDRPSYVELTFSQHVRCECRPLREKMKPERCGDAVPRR
Briefly: SPR Biacore; Fc fusion captured on anti-human IgG (Fc) antibody chip, PlGF as analyte, 1:1 model.

The target of assay [4] is recombinant human VEGF-A165 (human) (UniProt P15692). Briefly: SPR Biacore; Fc fusion captured on anti-human IgG (Fc) antibody chip, VEGF-A165 as analyte, 1:1 model.
The target is the same in assay [5]. This is another data set of the same source.
The target is the same in assay [6]. This is another data set of the same source.
Assay [7] deals with T2, human PlGF (human). Briefly: SPR Biacore; Fc fusion captured on anti-human IgG (Fc) antibody chip, PlGF as analyte, 1:1 model. This is another data set of the same source.
In assay [8] the target is recombinant human VEGF-C (human) (UniProt P49767).
recombinant human VEGF-C (human), sequence (P49767 103-227 limits assumed): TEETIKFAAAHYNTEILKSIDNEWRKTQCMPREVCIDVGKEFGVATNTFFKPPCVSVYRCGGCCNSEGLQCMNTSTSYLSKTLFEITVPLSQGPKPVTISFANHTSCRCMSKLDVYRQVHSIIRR
Assay [9] has as its target recombinant human VEGF-D (human) (UniProt O43915).
The target of assay [10] is recombinant human VEGF-C (human) (UniProt P49767). This is another data set of the same source.
Assay [11] shares this target. This is another data set of the same source.

aflibercept (Fc fusion), sequence (chain): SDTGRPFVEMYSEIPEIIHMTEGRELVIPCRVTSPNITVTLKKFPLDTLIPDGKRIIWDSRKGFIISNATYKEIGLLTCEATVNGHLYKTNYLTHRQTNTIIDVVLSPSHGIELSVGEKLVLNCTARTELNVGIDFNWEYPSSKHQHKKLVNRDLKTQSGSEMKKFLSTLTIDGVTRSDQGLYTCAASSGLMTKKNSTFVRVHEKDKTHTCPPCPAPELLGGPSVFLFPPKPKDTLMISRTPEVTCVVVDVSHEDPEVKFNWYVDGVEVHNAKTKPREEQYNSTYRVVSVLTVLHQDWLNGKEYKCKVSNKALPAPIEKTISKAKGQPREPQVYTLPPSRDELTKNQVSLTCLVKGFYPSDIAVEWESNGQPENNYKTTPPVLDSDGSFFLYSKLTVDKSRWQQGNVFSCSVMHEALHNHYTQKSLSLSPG
recombinant human VEGF-A165 (human), sequence (P15692 other isoform, or with tags, fused parts or gaps limits assumed): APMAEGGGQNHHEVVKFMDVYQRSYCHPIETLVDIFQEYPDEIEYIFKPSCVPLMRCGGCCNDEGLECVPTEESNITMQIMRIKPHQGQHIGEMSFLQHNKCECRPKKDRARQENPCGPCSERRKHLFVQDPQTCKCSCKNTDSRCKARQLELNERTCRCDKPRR
recombinant human VEGF-D (human), sequence (O43915 93-201 limits assumed): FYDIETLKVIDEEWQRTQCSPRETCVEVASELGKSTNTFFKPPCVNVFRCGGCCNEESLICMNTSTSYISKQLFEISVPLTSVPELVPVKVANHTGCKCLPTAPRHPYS

By Kd is commonly meant the equilibrium constant for the complex coming apart. On to aflibercept (Fc fusion), for which the IC50, inhibition of VEGF-A165 (60 ng/mL) mediated VEGFR-2 signaling, VEGFR-2-NFAT-RE luciferase reporter cells was determined as 0.41 nM in [1] and 0.39 nM in assay [6]. Besides, the Kd in [2] came out at 0.0173 nM; in [3], 0.48 nM; in assay [4], 0.0336 nM; in assay [7] it was 0.484 nM. The IC50, inhibition of VEGF-A165 (100 ng/mL on the sheet) mediated HLEC proliferation, alamarBlue reduction in assay [5] was 1.18 nM.

For the substance “recombinant human VEGFR-3 containing 7 extracellular domains (from UniProt P35916 25-775) (receptor)”, the IC50, MIXED STIMULUS VEGF-C (25 ng/mL) + VEGF-D (150 ng/mL): inhibition of HLEC proliferation, alamarBlue reduction; one IC50 for the mixture in assay [8] and in assay [9] was 1.26 nM in each case. Further, the IC50, inhibition of VEGF-C (25 ng/mL) mediated VEGFR-2 signaling, VEGFR-2-NFAT-RE luciferase reporter cells in assay [10] was 0.0093 nM. The IC50, inhibition of VEGF-C (40 ng/mL on the sheet) mediated HLEC proliferation, alamarBlue reduction in assay [11] turned out to be 1.47 nM.

Source of the values: patent US20230399377A1.
